T1: PD-L2-hFc (human, UniProt Q9BQ51 20-220)
T1 construct: range 20-220; not shown: human Fc (hFc)
T1 sequence (looked up): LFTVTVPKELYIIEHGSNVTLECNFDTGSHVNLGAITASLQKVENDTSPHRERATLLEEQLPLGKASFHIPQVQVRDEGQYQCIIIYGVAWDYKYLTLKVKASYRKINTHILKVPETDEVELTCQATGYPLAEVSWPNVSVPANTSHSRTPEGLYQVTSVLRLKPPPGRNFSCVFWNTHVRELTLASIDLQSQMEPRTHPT

T2: B7H3-His (human, UniProt Q5ZPR3 29-239)
T2 construct: range 29-239; not shown: His tag
T2 sequence (looked up): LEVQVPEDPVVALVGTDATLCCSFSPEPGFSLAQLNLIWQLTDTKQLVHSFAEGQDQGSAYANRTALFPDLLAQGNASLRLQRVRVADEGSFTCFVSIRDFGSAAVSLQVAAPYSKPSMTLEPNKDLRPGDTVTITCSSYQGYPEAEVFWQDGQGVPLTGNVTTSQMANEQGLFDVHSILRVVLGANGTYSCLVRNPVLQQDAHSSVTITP

T3: CTLA4-His (human, UniProt P16410 36-162)
T3 construct: Bought protein; also called Cat:11159-H08H; not shown: His tag
T3 sequence (looked up): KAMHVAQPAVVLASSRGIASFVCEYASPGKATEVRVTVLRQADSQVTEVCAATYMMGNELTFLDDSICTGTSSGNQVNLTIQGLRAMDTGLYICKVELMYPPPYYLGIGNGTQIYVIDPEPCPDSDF


How the values were obtained:
人PD-L1-His重组蛋白 [1] = target: T4, 人PD-L1-His重组蛋白 (human, UniProt Q9NZQ7 19-238); test: BLI (Fortebio Octet QKe), antibody captured on AHC probe, human PD-L1-His 100 nM, 1:1 Langmuir fit
T4 construct: range 19-238; also called 人PD-L1胞外区结构域重组蛋白; 重组人PD-L1; not shown: His tag
T4 sequence (Q9NZQ7 19-238 limits assumed): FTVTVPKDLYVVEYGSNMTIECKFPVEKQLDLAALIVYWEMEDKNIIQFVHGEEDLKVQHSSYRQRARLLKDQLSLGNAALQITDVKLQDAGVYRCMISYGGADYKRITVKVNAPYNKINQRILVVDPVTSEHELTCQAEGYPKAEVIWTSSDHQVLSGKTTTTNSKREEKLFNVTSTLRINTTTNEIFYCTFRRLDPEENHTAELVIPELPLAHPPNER

人PD-L1-His重组蛋白 [2] = target: T4, 人PD-L1-His重组蛋白; test: BLI (Fortebio Octet QKe), antibody captured on AHC probe, human PD-L1-His 50 nM and 20 nM, 1:1 Langmuir fit
PD-L2-hFc = target: T1, PD-L2-hFc; test: ELISA; protein coated at 2 ug/mL
B7H3-His = target: T2, B7H3-His; test: ELISA; protein coated at 2 ug/mL
CTLA4-His = target: T3, CTLA4-His; test: ELISA; protein coated at 2 ug/mL
重组人CD28 = target: T5, 重组人CD28 (human, UniProt P10747 19-152); test: ELISA; protein coated at 2 ug/mL
T5 construct: Bought protein; also called Cat:11524-HCCH
T5 sequence (P10747 19-152 limits assumed): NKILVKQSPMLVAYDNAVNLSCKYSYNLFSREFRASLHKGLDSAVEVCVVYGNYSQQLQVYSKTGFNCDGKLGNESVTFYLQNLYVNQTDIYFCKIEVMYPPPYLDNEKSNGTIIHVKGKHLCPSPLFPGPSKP

人PD-L1-His重组蛋白 [3] = target: T4, 人PD-L1-His重组蛋白; test: BLI (Fortebio Octet QKe), antibody captured on AHC probe, human PD-L1-His 60 nM, 1:1 Langmuir fit
人PD-L1/mFc重组蛋白 = target: T6, 人PD-L1/mFc重组蛋白 (human, UniProt Q9NZQ7 19-238); test: competition ELISA; PD-1-hFc coated, PD-L1-mFc 1 ug/mL, antibody titrated from 4.5 ug/mL
T6 construct: range 19-238; not shown: mouse Fc (mFc)
T6 sequence (Q9NZQ7 19-238 limits assumed): as the sequence (Q9NZQ7 19-238 limits assumed) above

人PD-L1全长(细胞表面表达) [4] = target: T7, 人PD-L1全长(细胞表面表达) (human, UniProt Q9NZQ7 19-290); test: flow cytometry (MFI) on CHO-PD-L1-CD3L cells, antibody titrated from 30 ug/mL
T7 construct: whole, on cells; the cell line is named under assay or readout

人PD-L1全长(细胞表面表达) [5] = target: T7, 人PD-L1全长(细胞表面表达); test: cell-based or functional assay

Binder | Kd (人PD-L1-His重组蛋白 [1]) | also measured
182鼠抗体 (antibody, V domains shown, Tested as hybridoma supernatant or as purified mouse antibody; also called m182) VH: EVQLQQSGAELVKPGASVKLSCTVSGFNIKDIYMHWLKQRPEQGLEWIGRIDPANGNTKYDPKFQDKATMIADTSSNTAYLQLSSLTSEDTAVYYCASGQLGPLGFDYWGQGTTLTVSS VL: DIQMTQTTSSLSASLGDRVTISCRASQDISNYLNWYQQKPDGTVKLLIYYTSRLHSGVPSRFSGSGSGTDYSLTISNLEQEDIATYFCQQGNTLPYTFGGGTKLEIK |  | binding result (PD-L2-hFc): no binding (tested: 1ug/ml); binding result (B7H3-His): no binding (tested: 1ug/ml); binding result (CTLA4-His): no binding (tested: 1ug/ml); binding result (重组人CD28): no binding (tested: 1ug/ml)
H182-MUT4 (antibody, human IgG1, kappa, V domains shown, also called h182-LCDR3-4+h182-HCDR2-3) VH: EVQLVQSGAEVKKPGATVKISCKVSGFNIKDIYMHWVQQAPGKGLEWMGRIDPANANTKYDPKFQDRVTITADTSTNTAYMELSSLRSEDTAVYYCASGQLGPLGFDYWGQGTTVTVSS VL: DIQMTQSPSSLSASVGDRVTITCRASQDISNYLNWYQQKPGKAPKLLLYYTSRLHSGVPSRFSGSGSGTDYTLTISSLQPEDFATYFCQQGAGRPYTFGGGTKVEIKR |  | Kd (人PD-L1-His重组蛋白 [3]): 0.465 nM; IC50 (人PD-L1/mFc重组蛋白): 6.24 nM; EC50 (人PD-L1全长(细胞表面表达) [4]): 0.658 nM; ADCC EC50 (MDA-MB-231 target cells, NK92 effector cells, calcein release) (人PD-L1全长(细胞表面表达) [5]): 0.96 ng/mL
182-4 (antibody, V domains shown) VH: EVQLVQSGAEVKKPGATVKISCKVSGFNIKDIYMHWVQQAPGKGLEWMGRIDPANGNTKYDPKFQDRVTITADTSTDTAYMELSSLRSEDTAVYYCATGQLGPLGFDYWGQGTTVTVSS VL: DIQMTQSPSSLSASVGDRVTITCRASQDISNYLNWYQQKPGKAPKLLLYYTSRLHSGVPSRFSGSGSGTDYTLTISSLQPEDFATYYCQQGNTLPYTFGGGTKVEIKR | 8.19 nM | 
182-1 (antibody, V domains shown) VH: EVQLVQSGAEVKKPGATVKISCKVSGFNIKDIYMHWVQQAPGKGLEWMGRIDPANGNTKYDPKFQDRVTITADTSTDTAYMELSSLRSEDTAVYYCATGQLGPLGFDYWGQGTTVTVSS VL: DIQMTQTTSSLSASLGDRVTISCRASQDISNYLNWYQQKPDGTVKLLIYYTSRLHSGVPSRFSGSGSGTDYSLTISNLEQEDIATYFCQQGNTLPYTFGGGTKLEIKR | 5.82 nM | 
182-3 (antibody, human IgG1, V domains shown, also called h182L1 + Ch182H) VH: EVQLQQSGAELVKPGASVKLSCTVSGFNIKDIYMHWLKQRPEQGLEWIGRIDPANGNTKYDPKFQDKATMIADTSSNTAYLQLSSLTSEDTAVYYCASGQLGPLGFDYWGQGTTLTVSS VL: DIQMTQSPSSLSASVGDRVTITCRASQDISNYLNWYQQKPGKAPKLLLYYTSRLHSGVPSRFSGSGSGTDYTLTISSLQPEDFATYYCQQGNTLPYTFGGGTKVEIKR | 4.77 nM | 

Continued, in another order:

Kd (人PD-L1-His重组蛋白 [1]) | Binder | also measured
2.14 nM | 嵌合抗体Ch182 (antibody, human IgG1, V domains shown) VH: EVQLQQSGAELVKPGASVKLSCTVSGFNIKDIYMHWLKQRPEQGLEWIGRIDPANGNTKYDPKFQDKATMIADTSSNTAYLQLSSLTSEDTAVYYCASGQLGPLGFDYWGQGTTLTVSS VL: DIQMTQTTSSLSASLGDRVTISCRASQDISNYLNWYQQKPDGTVKLLIYYTSRLHSGVPSRFSGSGSGTDYSLTISNLEQEDIATYFCQQGNTLPYTFGGGTKLEIK | Kd (人PD-L1-His重组蛋白 [2]): ~2.02 nM
1.93 nM | 182-2 (antibody, V domains shown) VH: EVQLVQSGAEVKKPGATVKISCKVSGFNIKDIYMHWVQQAPGKGLEWMGRIDPANGNTKYDPKFQDRVTITADTSTNTAYMELSSLRSEDTAVYYCASGQLGPLGFDYWGQGTTVTVSS VL: DIQMTQTTSSLSASLGDRVTISCRASQDISNYLNWYQQKPDGTVKLLIYYTSRLHSGVPSRFSGSGSGTDYSLTISNLEQEDIATYFCQQGNTLPYTFGGGTKLEIKR | 
3.64 nM | h182 (antibody, V domains shown) VH: EVQLVQSGAEVKKPGATVKISCKVSGFNIKDIYMHWVQQAPGKGLEWMGRIDPANGNTKYDPKFQDRVTITADTSTNTAYMELSSLRSEDTAVYYCASGQLGPLGFDYWGQGTTVTVSS VL: DIQMTQSPSSLSASVGDRVTITCRASQDISNYLNWYQQKPGKAPKLLLYYTSRLHSGVPSRFSGSGSGTDYTLTISSLQPEDFATYFCQQGNTLPYTFGGGTKVEIKR | 
3.43 nM | 182-5 (antibody, V domains shown) VH: EVQLVQSGAEVKKPGATVKISCKVSGFNIKDIYMHWVQQAPGKGLEWMGRIDPANGNTKYDPKFQDRVTITADTSTNTAYMELSSLRSEDTAVYYCASGQLGPLGFDYWGQGTTVTVSS VL: DIQMTQSPSSLSASVGDRVTITCRASQDISNYLNWYQQKPGKAPKLLLYYTSRLHSGVPSRFSGSGSGTDYTLTISSLQPEDFATYYCQQGNTLPYTFGGGTKVEIKR | 
5.68 nM | 182-7 (antibody, V domains shown) VH: EVQLVQSGAEVKKPGATVKISCKVSGFNIKDIYMHWVQQAPGKGLEWMGRIDPANGNTKYDPKFQDRVTITADTSTDTAYMELSSLRSEDTAVYYCATGQLGPLGFDYWGQGTTVTVSS VL: DIQMTQSPSSLSASVGDRVTITCRASQDISNYLNWYQQKPGKAPKLLLYYTSRLHSGVPSRFSGSGSGTDYTLTISSLQPEDFATYFCQQGNTLPYTFGGGTKVEIKR | 
4.64 nM | 182-6 (antibody, human IgG1, V domains shown, also called h182L2 + Ch182H) VH: EVQLQQSGAELVKPGASVKLSCTVSGFNIKDIYMHWLKQRPEQGLEWIGRIDPANGNTKYDPKFQDKATMIADTSSNTAYLQLSSLTSEDTAVYYCASGQLGPLGFDYWGQGTTLTVSS VL: DIQMTQSPSSLSASVGDRVTITCRASQDISNYLNWYQQKPGKAPKLLLYYTSRLHSGVPSRFSGSGSGTDYTLTISSLQPEDFATYFCQQGNTLPYTFGGGTKVEIKR | 

Source: patent CN113121686A (MABWELL SHANGHAI BIOTECHNOLOGY CO LTD, dated 2021)
